Earlier results in patent US8765467B2, “Multicellular compositions of pluripotent human embryonic stem cells and cancer cells” (Technion Research and Development Foundation Ltd., priority 2003, dated 2014).

Tests used:
[1] = system: human B-lineage acute lymphoblastic leukemia (B-ALL); settings: human B-ALL engrafted within marrow of immunodeficient mice; literature (Eisterer et al 2002)
tumors = tumors grown in immunocompromised mice; literature (Folkman 2002)

B1: Endostatin (protein, UniProt P39060 1572-1754, looked up)
Endostatin: HSHRDFQPVLHLVALNSPLSGGMRGIRGADFQCFQQARAVGLAGTFRAFLSSRLQDLYSIVRRADRAAVPIVNLKDELLFPSWEALFSGSEGPLKPGARIFSFDGKDVLRHPTWPQKSVWHGSDPNGRRLTESYCETWRTEAPSATGQASSLLGGRLLGQSAASCHHAYIVLCIENSFMTASK
modifications: Endostatin
notes: antiangiogenic agent cited from the literature
In the case of B1, the inhibitory effect [1] is listed as “did not exhibit any inhibitory effect” and the anti-angiogenic activity (tumors) is listed as “potent anti-angiogenic agent”.
